Laboratory results from paper PMC3821638, “Molecular Cloning and Characterization of the Calcineurin Subunit A from Plutella xylostella” (International Journal of Molecular Sciences, 2013).

Test system: T1, O=[N+]([O-])c1ccc(OP(=O)(O)O)cc1
T1 construct: catalytic (phosphatase) domain CNA1–341 (PxCNα), His-tagged, expressed in E. coli
Experiment: Michaelis-Menten kinetics of purified rPxCNα (Km)
Assay type: biochemical, Plutella xylostella
Details: Mn2+ ([…] MnCl2 in assay buffer)

Sequence of Calcineurin subunit A (PxCNA), catalytic domain PxCNα (Plutella xylostella) (chain, as listed by the source): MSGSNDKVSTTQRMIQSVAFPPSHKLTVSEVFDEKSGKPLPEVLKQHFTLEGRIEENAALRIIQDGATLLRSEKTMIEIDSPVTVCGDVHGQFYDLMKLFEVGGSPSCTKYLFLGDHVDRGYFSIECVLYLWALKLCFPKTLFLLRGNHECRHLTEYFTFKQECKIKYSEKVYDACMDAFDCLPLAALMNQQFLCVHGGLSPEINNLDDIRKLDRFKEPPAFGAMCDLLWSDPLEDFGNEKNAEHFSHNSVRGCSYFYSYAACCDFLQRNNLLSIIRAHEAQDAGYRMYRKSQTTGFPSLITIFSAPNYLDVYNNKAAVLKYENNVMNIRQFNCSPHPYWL

“Calcineurin subunit A (PxCNA), catalytic domain PxCNα (Plutella xylostella)” was tested. Which Km did it give?
Its Km is 4.6 mM.
